The target of assay [1] is human intermediate-affinity IL-2 receptor complex, IL-2 CD122/CD132 (β/γ), on cells (human) (UniProt P14784).
For assay [2], the target named is human high-affinity IL-2 receptor complex, IL-2 CD25/CD122/CD132 (α/β/γ), on cells (human) (UniProt P01589).
For assay [3], the target named is T1, mouse high-affinity IL-2R (IL-2Rα/CD25 + IL-2Rβ + IL-2Rγ) on murine splenocytes (Treg cells, CD3+CD4+CD25+Foxp3+) (mouse) (UniProt P01590).
T1 sequence 1: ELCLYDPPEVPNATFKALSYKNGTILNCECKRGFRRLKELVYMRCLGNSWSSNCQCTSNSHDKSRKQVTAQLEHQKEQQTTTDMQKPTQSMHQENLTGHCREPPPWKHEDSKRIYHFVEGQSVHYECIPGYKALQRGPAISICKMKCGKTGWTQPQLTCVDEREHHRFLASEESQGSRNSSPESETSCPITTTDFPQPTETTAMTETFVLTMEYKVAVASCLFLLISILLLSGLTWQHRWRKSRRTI
T1 sequence 2: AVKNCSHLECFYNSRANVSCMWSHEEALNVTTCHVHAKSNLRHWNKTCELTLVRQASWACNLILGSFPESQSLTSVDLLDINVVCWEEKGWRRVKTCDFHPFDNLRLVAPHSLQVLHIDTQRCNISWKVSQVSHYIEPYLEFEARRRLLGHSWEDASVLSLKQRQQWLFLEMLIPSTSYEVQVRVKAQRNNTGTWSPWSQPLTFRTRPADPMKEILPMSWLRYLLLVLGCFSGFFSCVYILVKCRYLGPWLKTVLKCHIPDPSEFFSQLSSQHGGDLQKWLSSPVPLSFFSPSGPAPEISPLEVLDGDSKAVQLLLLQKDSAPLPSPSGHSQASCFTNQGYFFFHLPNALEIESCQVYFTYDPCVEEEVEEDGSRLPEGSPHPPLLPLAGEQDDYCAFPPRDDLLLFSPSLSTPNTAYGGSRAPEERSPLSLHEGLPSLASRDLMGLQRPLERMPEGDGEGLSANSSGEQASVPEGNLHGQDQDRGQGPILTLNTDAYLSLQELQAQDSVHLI
T1 sequence 3: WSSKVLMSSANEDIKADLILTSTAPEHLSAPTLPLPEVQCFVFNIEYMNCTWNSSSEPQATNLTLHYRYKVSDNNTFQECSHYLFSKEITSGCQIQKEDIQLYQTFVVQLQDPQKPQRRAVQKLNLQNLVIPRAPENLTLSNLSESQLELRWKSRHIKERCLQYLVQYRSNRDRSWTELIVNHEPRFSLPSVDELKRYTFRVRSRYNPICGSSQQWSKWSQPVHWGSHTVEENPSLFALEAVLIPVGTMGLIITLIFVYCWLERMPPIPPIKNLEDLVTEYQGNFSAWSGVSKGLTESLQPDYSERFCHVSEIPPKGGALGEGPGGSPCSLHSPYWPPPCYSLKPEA

Assay [4] has as its target T2, mouse intermediate-affinity IL-2R (IL-2Rβ + IL-2Rγ) on murine splenocytes (CD8+ T cells and NK cells) (mouse) (UniProt P16297).
T2 sequence 1: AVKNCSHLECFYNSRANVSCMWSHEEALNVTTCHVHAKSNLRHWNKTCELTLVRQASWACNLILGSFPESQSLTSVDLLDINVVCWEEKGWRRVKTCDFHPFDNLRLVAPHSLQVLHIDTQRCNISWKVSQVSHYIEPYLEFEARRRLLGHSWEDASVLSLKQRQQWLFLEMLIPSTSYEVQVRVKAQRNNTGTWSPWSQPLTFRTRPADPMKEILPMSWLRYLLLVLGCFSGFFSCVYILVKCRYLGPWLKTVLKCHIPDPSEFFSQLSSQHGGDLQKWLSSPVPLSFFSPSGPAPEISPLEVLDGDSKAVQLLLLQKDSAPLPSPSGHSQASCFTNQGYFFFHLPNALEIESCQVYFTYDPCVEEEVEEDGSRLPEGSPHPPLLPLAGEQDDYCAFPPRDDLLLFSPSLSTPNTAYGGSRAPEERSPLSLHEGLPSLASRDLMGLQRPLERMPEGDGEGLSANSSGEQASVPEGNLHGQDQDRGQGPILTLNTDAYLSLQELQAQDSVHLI
T2 sequence 2: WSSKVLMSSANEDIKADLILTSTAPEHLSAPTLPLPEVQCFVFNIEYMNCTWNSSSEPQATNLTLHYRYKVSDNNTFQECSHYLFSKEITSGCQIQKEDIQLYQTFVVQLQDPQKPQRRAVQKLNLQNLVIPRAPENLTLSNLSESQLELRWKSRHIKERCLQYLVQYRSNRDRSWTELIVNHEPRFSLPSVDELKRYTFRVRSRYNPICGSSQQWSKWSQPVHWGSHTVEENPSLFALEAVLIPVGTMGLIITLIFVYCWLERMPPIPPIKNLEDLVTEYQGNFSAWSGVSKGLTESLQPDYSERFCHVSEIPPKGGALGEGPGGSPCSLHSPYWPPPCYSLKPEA

The target in assay [5] is T2, mouse intermediate-affinity IL-2R (IL-2Rβ + IL-2Rγ) on murine splenocytes (CD8+ T cells and NK cells) (mouse). The source holds these as a separate data set.
Assay [6] deals with T3, human high-affinity IL-2 receptor complex, IL-2 CD25/CD122/CD132 (α/β/γ), on cells (human, UniProt P01589 22-272; P14784 27-551; P31785 23-369).
T3 sequence (looked up) 1: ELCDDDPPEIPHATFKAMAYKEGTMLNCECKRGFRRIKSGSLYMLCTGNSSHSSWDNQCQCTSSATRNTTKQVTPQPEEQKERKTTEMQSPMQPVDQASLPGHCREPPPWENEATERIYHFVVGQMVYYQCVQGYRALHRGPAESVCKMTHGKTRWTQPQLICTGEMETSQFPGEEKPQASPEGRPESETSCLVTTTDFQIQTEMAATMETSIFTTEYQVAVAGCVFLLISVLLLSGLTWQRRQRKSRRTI
T3 sequence (looked up) 2: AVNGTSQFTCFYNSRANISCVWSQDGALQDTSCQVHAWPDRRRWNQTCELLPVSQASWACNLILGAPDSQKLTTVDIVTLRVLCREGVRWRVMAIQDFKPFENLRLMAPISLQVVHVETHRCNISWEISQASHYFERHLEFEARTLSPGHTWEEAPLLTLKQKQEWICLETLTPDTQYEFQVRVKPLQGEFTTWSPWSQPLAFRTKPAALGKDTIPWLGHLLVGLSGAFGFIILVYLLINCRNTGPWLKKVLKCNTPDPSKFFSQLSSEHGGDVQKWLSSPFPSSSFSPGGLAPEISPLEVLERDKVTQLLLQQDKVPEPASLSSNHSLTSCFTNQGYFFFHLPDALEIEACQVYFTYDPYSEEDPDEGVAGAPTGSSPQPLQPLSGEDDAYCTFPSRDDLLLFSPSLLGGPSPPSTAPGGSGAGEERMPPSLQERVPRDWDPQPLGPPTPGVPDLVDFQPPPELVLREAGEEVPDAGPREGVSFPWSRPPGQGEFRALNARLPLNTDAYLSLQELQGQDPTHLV
T3 sequence (looked up) 3: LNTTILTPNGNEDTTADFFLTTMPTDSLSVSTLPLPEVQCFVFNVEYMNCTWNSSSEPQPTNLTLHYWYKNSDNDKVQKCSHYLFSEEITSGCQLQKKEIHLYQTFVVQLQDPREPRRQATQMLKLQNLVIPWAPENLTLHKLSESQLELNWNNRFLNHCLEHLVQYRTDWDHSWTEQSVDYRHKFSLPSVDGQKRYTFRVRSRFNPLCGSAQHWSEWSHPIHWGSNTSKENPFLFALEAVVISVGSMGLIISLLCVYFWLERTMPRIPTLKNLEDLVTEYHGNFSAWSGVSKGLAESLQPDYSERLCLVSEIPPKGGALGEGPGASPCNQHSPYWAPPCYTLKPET
Nature of the assay: cell-based or functional assay.

Assay [7] addresses T3, human high-affinity IL-2 receptor …. Nature of the assay: cell-based or functional assay. This is another data set of the same source.
The target is the same in assay [8]. In words: cell-based or functional assay. This is another data set of the same source.
For assay [9], the target named is T4, human intermediate-affinity IL-2 receptor complex, IL-2 CD122/CD132 (β/γ), on cells (human, UniProt P14784 27-551; P31785 23-369).
T4 sequence (looked up) 1: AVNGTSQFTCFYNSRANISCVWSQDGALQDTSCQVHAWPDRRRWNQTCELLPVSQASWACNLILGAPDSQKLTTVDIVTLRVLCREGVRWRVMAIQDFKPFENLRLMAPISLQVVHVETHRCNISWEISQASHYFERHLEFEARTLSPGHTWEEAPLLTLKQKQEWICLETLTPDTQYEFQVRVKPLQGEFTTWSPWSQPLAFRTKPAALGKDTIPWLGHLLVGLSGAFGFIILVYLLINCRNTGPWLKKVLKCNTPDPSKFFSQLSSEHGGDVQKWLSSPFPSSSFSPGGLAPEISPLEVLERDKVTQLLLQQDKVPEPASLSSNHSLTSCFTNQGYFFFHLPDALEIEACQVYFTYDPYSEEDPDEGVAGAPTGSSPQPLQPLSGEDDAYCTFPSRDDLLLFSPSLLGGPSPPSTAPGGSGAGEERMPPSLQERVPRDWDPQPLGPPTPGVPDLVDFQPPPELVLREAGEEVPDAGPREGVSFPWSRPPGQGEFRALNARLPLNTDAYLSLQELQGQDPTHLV
T4 sequence (looked up) 2: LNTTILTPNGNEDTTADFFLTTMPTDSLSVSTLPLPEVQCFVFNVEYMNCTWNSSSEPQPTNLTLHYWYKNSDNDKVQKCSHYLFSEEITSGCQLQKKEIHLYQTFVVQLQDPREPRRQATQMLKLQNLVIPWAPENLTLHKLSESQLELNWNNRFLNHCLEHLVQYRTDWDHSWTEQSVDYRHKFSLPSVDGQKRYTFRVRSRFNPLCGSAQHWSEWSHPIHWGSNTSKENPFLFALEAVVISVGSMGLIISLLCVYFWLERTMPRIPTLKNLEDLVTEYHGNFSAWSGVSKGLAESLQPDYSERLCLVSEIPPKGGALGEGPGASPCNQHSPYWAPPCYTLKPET
In words: cell-based or functional assay.

In assay [10] the target is T4, human intermediate-affinity IL-2 …. In words: cell-based or functional assay. The source holds these as a separate data set.
Assay [11] addresses T3, human high-affinity IL-2 receptor …. In words: cell-based or functional assay. The source holds these as a separate data set.
For assay [12], the target named is T4, human intermediate-affinity IL-2 …. Nature of the assay: cell-based or functional assay. This is another data set of the same source.
For assay [13] the target is unchanged. Nature of the assay: cell-based or functional assay. The source holds these as a separate data set.
Assay [14] shares this target. In words: cell-based or functional assay. This is another data set of the same source.
The target of assay [15] is T3, human high-affinity IL-2 receptor …. In words: cell-based or functional assay. The source holds these as a separate data set.

Where two headings read alike, the source gives them in different places.

For the molecule “Fc-IL2-R38N:L40T-T41N:K43T (from UniProt P01857-1) (Fc fusion)”, the EC50 (read off the curve), pSTAT5 MFI in NK cells of hPBMC in assay [1] was 6 nM. For the same molecule, the EC50 (read off the curve), pSTAT5 MFI in Treg cells of hPBMC in assay [2] worked out at 20 nM.
As to “human IL-2 variant hIL-2v (F42A, Y45A, L72G), secreted by virus-infected HeLa cells (from UniProt P60568 21-153) (ligand)”, in [3], the EC50 (read off the curve), pSTAT5 MFI, murine splenocyte Treg cells was found to be 70 ng/mL. For the same molecule, in assay [4], the EC50 (read off the curve), pSTAT5 MFI, murine splenocyte CD8 T cells was determined as 100 ng/mL. Besides, in [5], the EC50 (read off the curve), pSTAT5 MFI, murine splenocyte NK cells was 20 ng/mL.

B1: Fc-IL2v (Fc fusion)
chain: GGGGSGGGGSAPASSSTKKTQLQLEHLLLDLQMILNGINNYKNPKLTRMLTAKFAMPKKATELKHLQCLEEELKPLEEVLNGAQSKNFHLRPRDLISNINVIVLELKGSETTFMCEYADETATIVEFLNRWITFAQSIISTLT
Turning to B1, the “EC50 (read off the curve), pSTAT5 MFI in Treg cells of hPBMC” value in [6], in [7] and in [8] was roughly 8 nM in each case. The “EC50 (read off the curve), pSTAT5 MFI in NK cells of hPBMC” value in assay [9], in assay [12] and in [13] was roughly 3 nM each time. Also, in assay [10], the “EC50, pSTAT5 in CD8 T cells of hPBMCs (flow cytometry)” value is 11.3 nM. The “EC50, pSTAT5 in NK cells of hPBMCs (flow cytometry)” value in [10] worked out at 1.53 nM. Besides, the “EC50, pSTAT5 in Treg cells of hPBMCs (flow cytometry)” value in assay [11] worked out at 5.88 nM. In [14], the “EC50, pSTAT5 induction in HH T cells (ELISA)” value came to 24.9 nM. Moreover, the “EC50, pSTAT5 induction in iTreg cells (ELISA)” value in assay [15] turned out to be 0.31 nM.
